The assay has as its system HeLa cells. The experiment in a line: Cellular uptake of NHS-coumarin labelled proteins, fluorescence microscopy. It is filed as cell-based. On the procedure: Labelling of proteins with fluorescent dyes—Fluorescent dyes were considered as an example of a functional molecule for investigating the cell membrane penetration ability of the conjugate. Labelling of the recombinant protein with a dye was carried out by performing a series of reaction in dark conditions. The protein to be labelled was collected in PBS buffer (1× and pH 7.3) and the dye was collected at two to three times higher concentration to that of the protein. The protein was added to 0.1M sodium carbonate buffer (pH 8.5) followed by the dye. The dye was added very slowly (30 μl each time) to the buffer containing the protein kept on ice accompanied by occasional shaking. The resulting solution was wrapped with aluminium foil to keep away any light. The solution was stirred for 1 hour at room temperature and was then purified by gel filtration, i.e. passed through a desalting column or a PD 10 column with 1×PBS buffer. […]
Cellular uptake of labelled proteins—The uptake of labelled proteins was checked by treating mammalian cells with different labelled proteins such as AlbG (SEQ ID NO: 1), EfsQNR (SEQ ID NO: 2) and, as a comparative example, TtCuA (SEQ ID NO: 13). […] The cells were then washed twice, after 3 hours and 24 hours with HBSS (Hanks […] salt solution) or PBS and observed under fluorescence microscopy and/or confocal laser scanning microscope. […]

The text below walks through data of US11583589B2, “Cell membrane penetrating conjugates” (priority 2017, dated 2023).

B1: TtCuA-NHSC: comparative example: TtCuA protein (SEQ ID NO: 13, Thermus thermophilus) labelled with NHS-coumarin dye (conjugate)
chain: AYTLATHTAGVIPAGKLERVDPTTVRQEGPWADPAQAVVQTGPNQYTVYVLAFAFGYQPNPIEVPQGAEIVFKITSPDVIHGFHVEGTNINVEVLPGEVSTVRYTFKRPGEYRIICNQYCGLGHQNMFGTIVVKE
modifications: NHS-coumarin dye label; Amino acid sequence of TtCuA protein
On to B1, for which, where the note is “NHS-C labelled protein, Hoechst Blue co-stain”, the “fluorescence inside the cells (presence of conjugate inside the cells)” value is “significantly less fluorescence”. In addition, the “cell penetration ability (cell uptake), compared between conjugates” value (NHS-C labelled proteins) is recorded as “not able to effectively penetrate the cell membrane”.
